Measured values from patent publication US8063181B2, “Method for the production of cyclic molecules” (ZYRUS Beteiligungsgesellschaft mbH & Co. Patent I KG, priority 2003, dated 2011).

B1: recombinated fengycin-peptide cyclase (Bacillus subtilis subsp. subtilis str. 168) (protein)
chain: QNLFCFPPISGFGIYFKDLALLLNEKAAVYGFHFIEQDTRIEQYVNCMTDIQPEGPYVLLGYSAGGNLAFEVAQAMERKGLEVSDFIIVDAYLKEQPLPIDTGNDESAAYLPEAVREKVMKKKRNYQEYWAQLLNEGHIKASIHFIEAGIHPETSGHTGLTKWEGACGNYSEYTGFGAHKDMLEGTYAEKNADIILDILEKITSNQ
notes: recombinant fengycin TE
B2: surfactin-peptide cyclase (Bacillus subtilis subsp. subtilis str. 168) (protein)
chain: QIIFAFPPVLGYGLMYQNLSSRLPSYKLCAFDFIEEEDRLDRYADLIQKLQPEGPLTLFGYSAGCSLAFEAAKKLEEQGRIVQRIIMVDSYKKQGVSDLDGRTVESDVEALMNVNRDNEALNSEAVKHGLKQKTHAFYSYYVNLISTGQVKADIDLLTSGADFDMPEWLASWEEATTGVYRVKRGFGTHAEMLQGETLDRNAEILLEFLNTQT
notes: purified, isolated thioesterase domains or peptide cyclases from NRPS or PKS systems

Legend:
[1] = substrate: CCC(C)[C@H](NC(=O)[C@H](Cc1ccc(O)cc1)NC(=O)[C@@H](CCC(N)=O)NC(=O)[C@@H]1CCCN1C(=O)[C@@H](C)NC(=O)[C@@H](CCC(=O)O)NC(=O)[C@H](NC(=O)[C@H](Cc1ccc(O)cc1)NC(=O)[C@H](CCCN)NC(=O)[C@H](CCC(=O)O)NC(C)=O)C(C)O)C(=O)Sc1ccccc1; assay: cyclization kinetics with fengycin-peptide cyclase; format: biochemical; settings: other: cyclization reaction, Lineweaver-Burk plot, 25 mM HEPES, 50 mM NaCl, pH 7, room temperature
Procedure: The purified substrate with the leaving group according to the present invention is then incubated with the respective peptide cyclase in the ratio of 1 (enzyme): 100 (substrate) in 25 mM HEPES, 50 mM NaCl at pH 7 and room temperature for 30-60 minutes. The production of the HEPES solution is known to persons skilled in the art and was described in J. Sambrook, E. F. Fritsch and T. Maniatis: Molecular Cloning: A Laboratory Manual Vol. I-III, Cold Spring Harbor Laboratory Press, 1982. The identification and quantification of the reaction product is carried out by means of analytical HPLC.
The cyclization of the linear fengycin-thiophenol substrate is carried out in an aqueous cyclization buffer comprised of 2-[4-(2-hydroxyethyl)-1-piperazinyl]-ethane sulfonic acid (HEPES, 25 mM) and sodium chloride (NaCl, 50 mM) at pH 7 in a total volume of 50 μL. The substrate concentration is 100 μM for standard cyclization reactions. The cyclization reaction is initiated by the addition of recombinant fengycin TE at an end concentration of 5 μM and stopped by the addition of 35 μL of 4% trifluoroacetic acid (TFA) in water after 4 hours. […]
With this measurement, the linear range for further kinetic studies is determined. […]

[2] = substrate: CC(C)C[C@H](NC(=O)[C@@H](CC(=O)O)NC(=O)[C@H](NC(=O)[C@H](CN)NC(=O)[C@@H](CC(C)C)NC(=O)[C@@H](CCC(=O)O)NC(=O)CC(C)O)C(C)C)C(=O)N[C@H](CC(C)C)C(=O)Sc1ccccc1; assay: cyclization kinetics with surfactin-peptide cyclase; format: biochemical; settings: other: cyclization reaction; pH 7.0; 40.0 °C
Procedure: […] The production of the HEPES solution is known to persons skilled in the art and was described in J. Sambrook, E. F. Fritsch and T. Maniatis: Molecular Cloning: A Laboratory Manual Vol. I-III, Cold Spring Harbor Laboratory Press, 1982. The identification and quantification of the reaction product is carried out by means of analytical HPLC.
With this measurement, the linear range for further kinetic studies is determined. The reactions are stopped by the addition of 35 μL TFA (4% in water) and examined by analytic HPLC with a Nucleodur C18 column (Macherey and Nagel, 250/3, pore diameter: 100 Å, particle size: 3 μm) with the following gradient: 0-35 min, 30-60% acetonitrile/0.1% TFA in water/0.1% TFA; 0.4 mL/min, 40° C. Kinetic examinations are carried out at different points in time at substrate concentrations of 50 μM up to 1000 μm and the kinetic parameters KM and kcat are taken from the Lineweaver-Burk plot. For fengycin-thiophenol, a KM of 461 μm and a kcat of 0.33 min^−1 result from the cyclization reaction.
In the case of surfactin-peptide cyclase, kinetic reference data with a SNAC-substrate exists. In the case of surfactin-thiophenol, a KM of 126 μm and a kcat of 5.6 min^−1 are determined for the cyclization reaction, which corresponds to a kcat/KM value of 0.04 μm^−1 min^−1. Compared with that is the kinetic efficiency of surfactin-SNAC, represented by the kcat/KM value 0.0029 μm^−1 min^−1, 14 times less than with surfactin-thiophenol.

Protein | Km [1] [µM] | kcat [1] [s⁻¹] | Km [2] [µM] | kcat [2] [s⁻¹] | kcat/Km [2] [μm^−1 min^−1]
B1 | 461 | 0.0055 | – | – | –
B2 | – | – | 126 | 0.0933 | 0.04
